Results on one molecule are retold here after patent publication US12122830 (ABL BIO, dated 2024).

Assay [1] deals with T1, human ROR1 expressed on the cell surface (human, UniProt Q01973 30-937).
T1 construct: whole, on cells; On JeKo-1 and Mino cells and other cancer cell lines (endogenous) and on transfected CHO and MC38 cells; also called cell surface-expressed ROR1; CHO-human ROR1
In words: flow cytometry on Kasumi-2 cells (ALL), C2E3 IgG at 10 µg/mL, MFI of anti-ROR1 / MFI of 2nd Ab. How it is done:
(§1) For the cell lines, the binding to ROR1 was analyzed with FACS (FACSCalibur, BD Biosciences) by using the anti-ROR1 antibody of the present invention.
(§2) Specifically, after disassociating each cell line and washing in PBS, the number of cells was counted and set as 2 ×10^5 cells/200 µl PBS, and then the clone C2E3 among ROR1 monoclonal antibodies prepared in Example 3 was treated in 10 µg/mL, and it was reacted at 4° C. for 1 hour. After reaction, cells were washed in PBS, and then the FITC-labeled constant region (Fc)-specific antibody (Goat anti-human IgG FITC conjugate, Fc specific, Sigma, F9512, concentration: 2.0 mg/ml) was suspended in 2 µl/1 ×10^5 cells/200 µl PBS, and it was reacted at 4° C. for 1 hour. After reaction, cells were washed in PBS, it was analyzed using a FACSCalibur device. The negative control group was treated only with the FITC-labeled constant region (Fc)-specific antibody. To compare the expression degrees of ROR1 among the cancer cell lines, the value of the result for the peak shift in the experimental group treated with the ROR1 monoclonal antibody (C2E3) of the present invention was divided by the result for the peak shift in the control group (Mean Fluorescence Intensity Ratio MFI Ratio: MFI of anti-ROR1/MFI of 2nd Ab).
Background: In flow cytometry, cells or beads pass a laser one at a time.

The target in assay [2] is T1, human ROR1 expressed on the cell surface. Description: flow cytometry on A549 cells (lung cancer), C2E3 IgG at 10 µg/mL, MFI of anti-ROR1 / MFI of 2nd Ab. How it is done:
as §1, §2

For assay [3] the target is unchanged. Description: flow cytometry on JeKo-1 cells (MCL), C2E3 IgG at 10 µg/mL, MFI of anti-ROR1 / MFI of 2nd Ab. How it is done: as §1, §2
The target is the same in assay [4]. In words: flow cytometry on Jurkat cells (T cell leukemia), C2E3 IgG at 10 µg/mL, MFI of anti-ROR1 / MFI of 2nd Ab. How it is done: as §1, §2
Assay [5] has the same target. Description: flow cytometry on AGS cells (gastric cancer), C2E3 IgG at 10 µg/mL, MFI of anti-ROR1 / MFI of 2nd Ab. How it is done: as §1, §2
The target is the same in assay [6]. In words: flow cytometry on HCC70 cells (breast cancer), C2E3 IgG at 10 µg/mL, MFI of anti-ROR1 / MFI of 2nd Ab. How it is done: as §1, §2
The target of assay [7] is T2, mouse ROR1 expressed on the cell surface (CHO-mouse ROR1) (mouse, UniProt Q9Z139 30-937).
T2 construct: whole, on cells; Temporarily transfected CHO cells
In words: flow cytometry on CHO cells transiently overexpressing mouse ROR1, FITC anti-human Fc detection, MFI ratio to 2nd Ab. How it is done: For this experiment, the degree of binding of the anti-ROR1 antibody and ROR1 was measured by using FACSCalibur (BD Biosciences) device with the cell lines as follows, the cell lines artificially overexpressing the ROR1 protein by transfecting an ROR1 gene temporarily (CHO-human ROR1, CHO-human ROR2, CHO-mouse ROR1) or stably (MC38-human ROR1) (FIG. 5 and FIG. 7, respectively) or the cell lines expressing ROR1 (JeKo-1, Mino) (FIG. 6) or a cell line not expressing ROR1 (MCF7) (FIG. 6). […] JeKo-1, Mino, CHO-human ROR1, CHO-mouse ROR1 and MC38-human ROR1 are all cell lines expressing human ROR1 or mouse ROR1.
Specifically, after disassociating each cell line and washing in PBS, the number of cells was counted and set as 2×10^5 cells/200 µl PBS, and then each ROR1 monoclonal antibody in Example 3 was prepared in 10 µg/mL or as 5 fold-diluted from 10 µg/mL, and was reacted at 4° C. for 1 hour. After reaction, cells were washed in PBS and then the FITC-labeled constant region (Fc)-specific antibody (Goat anti-human IgG FITC conjugate, Fc specific, Sigma, F9512, concentration: 2.0 mg/ml) was suspended in 2 µl/1×10^5 cells/200 µl PBS, and it was reacted at 4° C. for 1 hours. The confirmation of expression degree of human ROR1, human ROR2 and mouse ROR1 that were temporarily overexpressed was analyzed by using a commercially available antibody for FACS analysis (anti-ROR1: R&D Systems, FAB2000G, anti-ROR2: R&D, FAB20641P). After reaction, cells were washed in PBS and decoded by using a FACSCalibur device. The negative control group (2nd Ab) was treated only with the FITC-labeled constant region (Fc)-specific antibody. The result for the peak shift in the experimental group treated with each ROR1 monoclonal antibody was compared to the result for the shift in the control group (Mean Fluorescence Intensity Ratio, MFI Ratio: MFI of anti-ROR1/MFI of 2nd Ab).

The target in assay [8] is T1, human ROR1 expressed on the cell surface. Description: flow cytometry on Calu-6 cells (lung cancer), C2E3 IgG at 10 µg/mL, MFI of anti-ROR1 / MFI of 2nd Ab. How it is done:
as §1, §2

The target is the same in assay [9]. Description: flow cytometry on HCC1937 cells (breast cancer), C2E3 IgG at 10 µg/mL, MFI of anti-ROR1 / MFI of 2nd Ab. How it is done:
as §1, §2

T1 sequence (Q01973 30-937): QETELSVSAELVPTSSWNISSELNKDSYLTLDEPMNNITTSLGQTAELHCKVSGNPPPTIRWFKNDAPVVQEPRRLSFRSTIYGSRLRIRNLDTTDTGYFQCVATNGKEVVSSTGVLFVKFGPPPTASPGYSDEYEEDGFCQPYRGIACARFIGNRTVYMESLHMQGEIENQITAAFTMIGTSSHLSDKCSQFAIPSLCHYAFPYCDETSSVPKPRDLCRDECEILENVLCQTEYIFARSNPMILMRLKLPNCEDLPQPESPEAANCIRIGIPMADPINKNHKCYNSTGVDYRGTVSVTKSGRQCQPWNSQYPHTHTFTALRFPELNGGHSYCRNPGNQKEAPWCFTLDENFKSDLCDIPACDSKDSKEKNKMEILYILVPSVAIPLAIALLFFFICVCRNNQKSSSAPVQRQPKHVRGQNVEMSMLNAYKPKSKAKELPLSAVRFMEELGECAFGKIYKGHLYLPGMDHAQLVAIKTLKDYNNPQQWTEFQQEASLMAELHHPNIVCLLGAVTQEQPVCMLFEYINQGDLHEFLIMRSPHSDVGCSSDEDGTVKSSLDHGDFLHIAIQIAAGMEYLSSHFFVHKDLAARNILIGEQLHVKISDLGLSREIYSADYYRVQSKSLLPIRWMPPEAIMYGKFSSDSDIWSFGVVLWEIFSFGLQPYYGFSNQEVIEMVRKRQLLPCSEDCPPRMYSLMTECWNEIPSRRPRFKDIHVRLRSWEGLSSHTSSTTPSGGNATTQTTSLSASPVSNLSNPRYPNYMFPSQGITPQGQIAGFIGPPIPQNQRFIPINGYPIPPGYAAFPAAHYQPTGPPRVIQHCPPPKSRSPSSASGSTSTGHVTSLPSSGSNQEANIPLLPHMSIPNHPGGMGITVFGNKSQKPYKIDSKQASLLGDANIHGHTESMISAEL
T2 sequence (Q9Z139 30-937): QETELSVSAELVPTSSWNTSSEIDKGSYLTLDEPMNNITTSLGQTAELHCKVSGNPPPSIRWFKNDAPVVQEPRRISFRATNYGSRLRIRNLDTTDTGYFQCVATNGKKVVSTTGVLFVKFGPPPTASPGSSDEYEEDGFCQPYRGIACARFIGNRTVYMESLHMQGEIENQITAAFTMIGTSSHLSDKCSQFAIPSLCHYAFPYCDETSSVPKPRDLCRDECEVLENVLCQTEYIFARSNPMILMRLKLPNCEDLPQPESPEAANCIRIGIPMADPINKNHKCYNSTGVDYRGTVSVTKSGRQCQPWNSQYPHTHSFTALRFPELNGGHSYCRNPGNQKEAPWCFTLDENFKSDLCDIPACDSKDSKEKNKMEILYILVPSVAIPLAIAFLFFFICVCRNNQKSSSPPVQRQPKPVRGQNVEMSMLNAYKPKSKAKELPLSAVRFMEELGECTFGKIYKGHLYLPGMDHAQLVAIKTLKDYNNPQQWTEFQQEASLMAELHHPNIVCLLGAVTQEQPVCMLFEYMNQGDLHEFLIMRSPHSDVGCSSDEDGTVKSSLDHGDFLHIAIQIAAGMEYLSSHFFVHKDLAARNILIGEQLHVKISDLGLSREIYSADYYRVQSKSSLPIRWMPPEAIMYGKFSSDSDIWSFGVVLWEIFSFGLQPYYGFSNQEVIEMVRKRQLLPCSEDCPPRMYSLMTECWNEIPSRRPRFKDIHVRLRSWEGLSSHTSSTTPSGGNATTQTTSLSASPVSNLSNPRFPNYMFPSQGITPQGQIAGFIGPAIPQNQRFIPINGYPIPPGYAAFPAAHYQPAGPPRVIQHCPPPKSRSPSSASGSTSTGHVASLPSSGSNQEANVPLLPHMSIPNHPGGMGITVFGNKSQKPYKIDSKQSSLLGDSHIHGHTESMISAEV

B1: C2E3 anti-ROR1 IgG antibody (antibody, V domains shown)
VH: EVQLLESGGGLVQPGGSLRLSCAASGFTFSNYAMSWVRQAPGKGLEWVSSISHNSGSTYYADSVKGRFTISRDNSKNTLYLQMNSLRAEDTAVYYCAKFISARKSLGRSYSNGMDVWGQGTLVTVSS
VL: QSVLTQPPSASGTPGQRVTISCTGSSSNIGSNDVTWYQQLPGTAPKLLIYADSKRPSGVPDRFSGSKSGTSASLAISGLRSEDEADYYCGTWDYSLSGYVFGGGTKLTVLG
B1: the “Mean Fold Ratio” value is 11.5 in assay [1]; 6 in assay [2]; 4 in [3]; 1.7 in assay [4]; 12.3 in assay [5]; 3.8 in [6]. Moreover, the “Mean Fold Ratio” value worked out at 3.3 in [8] and 2.7 in assay [9]. Moreover, the binding result in [7] was “binds”.
